Source: publication PMC4348151

Legend:
gp41-longNC = assay: BLI; conditions: pH 4.0; second pH 7.0; 0.1% DPC
gp41-longNC (HIV-1) = gp41-longNC (HIV-1) (UniProt P04578); assay: AUC

2F5 was tested, and the “fold difference in KD at pHs 4 and 7” value (gp41-longNC) was 4,000-fold.
In the case of 4E10, the fold difference (gp41-longNC) is reported as 30-fold.
“gp41-longNC (from UniProt P04578) (domain or fragment)” was tested, and the stoichiometry N (gp41-longNC (HIV-1)) was 3.
